# Experimental data from patent US20250154272A1 (Astellas, published 2025).
# Substitutions are numbered along the chain they refer to. Names may count otherwise. Where two headings read alike, the source gives them in different places.
# T1: monkey CD137-human Fc fusion protein (monkey; human, UniProt Q07011 24-186)
# T1 construct: not shown: human IgG1 Fc of the pFUSE-hIgG1-Fc1 vector (InvivoGen, pfuse-hg1fc1)
# T1 chain: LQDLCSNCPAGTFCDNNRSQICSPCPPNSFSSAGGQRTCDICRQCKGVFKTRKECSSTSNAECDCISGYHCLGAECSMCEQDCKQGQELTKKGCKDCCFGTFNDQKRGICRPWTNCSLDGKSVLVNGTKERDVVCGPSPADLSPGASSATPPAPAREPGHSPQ
# B1: anti-CLDN4 (hKM3900)/anti-CD137 scFv bispecific antibody hKM3900_tA2-32LH_S (bispecific antibody)
# heavy (part 1 of 2): EVQLVQSGAEVKKPGASVKISCKASGYTFTDYYMNWVRQAPGQGLEWMGDVVPNNGVPTYNQKFKGRVTITADKSTSTAYMELRSLRSEDTAVYYCARPHYYYAGRSGAMDYWGQGTLVTVSS
# heavy (part 2 of 2): QSVLTQPPSASGTPGQRVTISCSGSSSNIGSNTVNWYQQFPGTAPKLLIYSNNQRPSGVPDRFSGSKSGTSASLAISGLQSEDEADYYCAGWDDSLNGPVFGGGTKLTVLGGGGGSGGGGSGGGGSGGGGSQVQLQESGPGLVKPSETLSLTCTVSGGSISGYYWSWIRQPPGKGLEWIGYIYYSGFTNYNPSLKSRVTISVDTSKNQFSLKLSSVTAADTAVYYCTRDHSHYYYMDVWGQGTTVTVSS
# light: DIQLTQSPSSLSASVGDRVTITCTASSTVSSTYLHWYQQKPGKAPKLLIYSTSNLASGVPSRFSGSGSGTDYTLTISSLQPEDFATYYCHQYHRSPPTFGQGTKLEIKRTVAAPSVFIFPPSDEQLKSGTASVVCLLNNFYPREAKVQWKVDNALQSGNSQESVTEQDSKDSTYSLSSTLTLSKADYEKHKVYACEVTHQGLSSPVTKSFNRGEC
# notes: scFv at the heavy chain C-terminus; not shown: human IgG1 heavy chain constant region; mutation positions by EU index; GS linker
# B2: anti-CLDN4 (hKM3900)/anti-CD137 scFv bispecific antibody hKM3900_tA2-48_S (bispecific antibody)
# heavy (part 1 of 2): B1 heavy (part 1 of 2)
# heavy (part 2 of 2): QVQLQESGPGLVKPSETLSLTCTVSGGSISSYYWSWIRQPPGKCLEWIGYIYYSGYTNYNPSLKSRVNISVDTSQNQFSLKLNSLTAADTAVYYCARTHSYYYGMDVWGQGTTVTVSSGGGGSGGGGSGGGGSQSVLTQPPSASGTPGQRVTISCSGSSSNIGNNPVNWYQQFPGTAPKLLIYSNNQRPSGVPDRFSGSKSGTSASLAISGLQSEDEADYYCEAWDDSLNGPVFGCGTKLTVLG
# light: B1 light
# notes: as for B1
# B3: anti-CLDN4 (hKM3900)/anti-CD137 scFv bispecific antibody hKM3900_tA2-73_S (bispecific antibody)
# heavy (part 1 of 2): B1 heavy (part 1 of 2)
# heavy (part 2 of 2): QVQLQESGPGLVKPSETLSLTCTVSGGSISSYYWTWIRQPPGKCLELVGYIYYSGYTSYNPSLKSRVTISIDTSKNQFSLQLNSVTAADTAVYFCARDDYGGNGYYGVDVWGQGTTVTVSSGGGGSGGGGSGGGGSQSVLTQPPSASGTPGQRVTISCSGSSSNIGNNPVNWYRQLPGTAPKLLIYSNNQRPSGVPDRFSGSKSGTSASLAISGLQSEDEADYYCAAWDDSLNGWVFGCGTKLTVLG
# light: B1 light
# notes: as for B1
# B4: anti-CLDN4 (hKM3900)/anti-CD137 scFv bispecific antibody hKM3900_tA2-32 (bispecific antibody)
# heavy (part 1 of 2): B1 heavy (part 1 of 2)
# heavy (part 2 of 2): QVQLQESGPGLVKPSETLSLTCTVSGGSISGYYWSWIRQPPGKCLEWIGYIYYSGFTNYNPSLKSRVTISVDTSKNQFSLKLSSVTAADTAVYYCTRDHSHYYYMDVWGQGTTVTVSSGGGGSGGGGSGGGGSQSVLTQPPSASGTPGQRVTISCSGSSSNIGSNTVNWYQQFPGTAPKLLIYSNNQRPSGVPDRFSGSKSGTSASLAISGLQSEDEADYYCAGWDDSLNGPVFGCGTKLTVLG
# light: B1 light
# notes: as for B1
# B5: anti-CLDN4 (hKM3900)/anti-CD137 scFv bispecific antibody hKM3900_tA2-48 (bispecific antibody)
# heavy (part 1 of 2): B1 heavy (part 1 of 2)
# heavy (part 2 of 2): B2 heavy (part 2 of 2)
# light: B1 light
# notes: as for B1
# B6: anti-CLDN4 (hKM3900)/anti-CD137 scFv bispecific antibody hKM3900_tA2-73 (bispecific antibody)
# heavy (part 1 of 2): B1 heavy (part 1 of 2)
# heavy (part 2 of 2): B3 heavy (part 2 of 2)
# light: B1 light
# notes: as for B1
# B7: anti-CLDN4 (hKM3900)/anti-CD137 scFv bispecific antibody hKM3900_3-34-j6_S (bispecific antibody)
# heavy (part 1 of 2): B1 heavy (part 1 of 2)
# heavy (part 2 of 2): EVQLLESGGGLVQPGESLRLSCKAFGYTFTNHHINWVRQAPGKCLEWVGYINPYNDYTTFNDKFKDRFTLSVDKSKSTAYLQMNSLRAEDTAVYYCARTWGHWYFDLWGQGTLVTVSSGGGGSGGGGSGGGGSNIQMTQSPSSLSASVGDRVTITCRASQSVSSNLAWYQQKPGKAPKLLIYDSSTRATGVPSRFSGSGSGTDFTLTISSLQPEDFATYYCQQYNNWPPWTFGCGTKLEIKR
# light: B1 light
# notes: scFv at the heavy chain C-terminus; Fc mutation P331S with L234A and L235A; not shown: human IgG1 heavy chain constant region; mutation positions by EU index; GS linker
# B8: anti-CLDN4 (hKM3900)/anti-CD137 scFv bispecific antibody hKM3900_tA2-32_S (bispecific antibody)
# heavy (part 1 of 2): B1 heavy (part 1 of 2)
# heavy (part 2 of 2): B4 heavy (part 2 of 2)
# light: B1 light
# notes: as for B1
# B9: anti-CD137 antibody A2-48 (antibody, V domains shown)
# VH: QVQLQESGPGLVKPSETLSLTCTVSGGSISSYYWSWIRQPPGKGLEWIGYIYYSGYTNYNPSLKSRVNISVDTSQNQFSLKLNSLTAADTAVYYCARTHSYYYGMDVWGQGTTVTVSS
# VL: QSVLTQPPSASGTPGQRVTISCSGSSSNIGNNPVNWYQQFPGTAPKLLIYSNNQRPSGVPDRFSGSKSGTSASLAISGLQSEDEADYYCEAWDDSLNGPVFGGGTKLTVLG
# notes: Purified from a hybridoma derived from an AlivaMab mouse
# B10: anti-CD137 antibody A2-73 (antibody, V domains shown)
# VH: QVQLQESGPGLVKPSETLSLTCTVSGGSISSYYWTWIRQPPGKGLELVGYIYYSGYTSYNPSLKSRVTISIDTSKNQFSLQLNSVTAADTAVYFCARDDYGGNGYYGVDVWGQGTTVTVSS
# VL: not shown
# notes: as for B9
# B11: anti-CD137 antibody 3-34 (antibody, V domains shown)
# VH: QVQLQQSEAELVRPGASVKISCKAFGYTFTNHHINWVKQRPGQGLDWIGYINPYNDYTTFNRKFKDKATLTVHKSSSTAYMELSGLTSDDSAVYYCARTWGHWYFDLWGRGTVVTVSS
# VL: EIVMTQSPATLSVSPGERATLSCRASQSVSSNLAWYQQKPGQAPRLLIYDSSTRATGIPARFSGSGSGTDFTLTISSLQSEDFAVYYCQQYNNWPPWTFGQGTKVEIKR
# notes: Purified from a hybridoma derived from a VelocImmune mouse (human variable, mouse constant regions)
# B12: anti-CD137 antibody A2-32 (antibody, V domains shown)
# VH: B9 VH with S31G, Y56F, N68T, Q75K, N83S, L85V, A96T, T98D, Y101H, G104Y
# VL: not shown
# notes: as for B9
# How the values were obtained:
# [1] = molecular target: T2, human CD137-His tag protein (R&D Systems, 9220-4B) (human, UniProt Q07011 24-186); test: ELISA, human CD137-His tag protein immobilized on the plate, anti-human IgG Fc-HRP, A450-A570
# T2 construct: Bought protein; not shown: His tag of the bought protein
# [2] = molecular target: T2, human CD137-His tag protein (R&D …); test: as above; remark: listed apart in the source
# [3] = molecular target: T3, human CD137-human Fc fusion protein (human, UniProt Q07011 24-186); test: ELISA of the purified antibody on coated plates
# T3 construct: not shown: human IgG1 Fc of the pFUSE-hIgG1-Fc1 vector (InvivoGen, pfuse-hg1fc1)
# [4] = molecular target: T1, monkey CD137-human Fc fusion protein; test: ELISA of the purified antibody on coated plates
Binder,EC50 (read off the curve) [1],binding result [3],binding result [4],further results
B1,~10 ng/mL,,,
B2,~10 ng/mL,,,
B3,~10 ng/mL,,,
B4,,,,EC50 (read off the curve) [2]: ~10 ng/mL
B5,,,,EC50 (read off the curve) [2]: ~10 ng/mL
B6,,,,EC50 (read off the curve) [2]: ~10 ng/mL
B7,~10 ng/mL,,,
B8,~10 ng/mL,,,
B9,,binds,binds,
B10,,binds,binds,
B11,,binds,binds,
B12,,binds,binds,
